Consider one substance from doi:10.1101/2025.02.24.639830.

This data set relates to LeuO (Escherichia coli (ASKA library overexpression strain)). The data set can be described thus: EMSA.

leuLABCD promoter region EMSA probe came in with a K half of 25 nM.
